Sequences and labels used below:
B1: RIP DD E626A (other)
chain: MAIFDNTTSLTDKHLDPIRENLGKHWKNCARKLGFTQSQIDEIDHDYERDGLKAKVYQMLQKWVMREGIKGATVGKLAQALHQCSRIDLLSSLIYVSQNHHHHHHH
notes: Single point alanine mutant of the His-tagged RIP DD construct; soluble mutant
B2: RIP DD R603A (other)
chain: MAIFDNTTSLTDKHLDPIRENLGKHWKNCAAKLGFTQSQIDEIDHDYERDGLKEKVYQMLQKWVMREGIKGATVGKLAQALHQCSRIDLLSSLIYVSQNHHHHHHH
notes: as for B1
B3: RIP DD K625A (other)
chain: MAIFDNTTSLTDKHLDPIRENLGKHWKNCARKLGFTQSQIDEIDHDYERDGLAEKVYQMLQKWVMREGIKGATVGKLAQALHQCSRIDLLSSLIYVSQNHHHHHHH
notes: Single point alanine mutant of the His-tagged RIP DD construct
B4: RIP DD K627A (other)
chain: MAIFDNTTSLTDKHLDPIRENLGKHWKNCARKLGFTQSQIDEIDHDYERDGLKEAVYQMLQKWVMREGIKGATVGKLAQALHQCSRIDLLSSLIYVSQNHHHHHHH
notes: as for B3
B5: RIP DD K599A (other)
chain: MAIFDNTTSLTDKHLDPIRENLGKHWANCARKLGFTQSQIDEIDHDYERDGLKEKVYQMLQKWVMREGIKGATVGKLAQALHQCSRIDLLSSLIYVSQNHHHHHHH
notes: as for B3

We go through 5 molecules from patent US7379820 (Pfizer, dated 2008).

The target of the assay is T1, MBP-TRADD (full-length TRADD protein expressed as a MBP fusion) (UniProt Q15628 1-312).
T1 construct: mature; Immobilized on 96 well plates for ELISA
T1 sequence (looked up): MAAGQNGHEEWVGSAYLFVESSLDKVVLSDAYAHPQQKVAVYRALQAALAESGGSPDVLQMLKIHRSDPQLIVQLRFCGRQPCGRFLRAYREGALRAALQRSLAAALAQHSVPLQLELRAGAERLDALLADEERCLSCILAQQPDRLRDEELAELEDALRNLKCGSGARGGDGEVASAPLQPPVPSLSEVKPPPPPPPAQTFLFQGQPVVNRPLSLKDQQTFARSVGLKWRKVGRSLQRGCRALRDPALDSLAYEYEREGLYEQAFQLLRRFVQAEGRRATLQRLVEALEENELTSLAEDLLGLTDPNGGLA
The assay can be described thus: ELISA, MBP-TRADD immobilized on 96 well plates. The procedure:
RIP DD binding assay. RIP DD binding to TRADD was determined by an enzyme-linked immunosorbent assay (ELISA). Ninety six well plates were coated overnight at 4° C. with 200 ng of MBP-TRADD, MBP-TNFR-1 DD, or MBP-IL1RacP (interleukin-1 receptor accessory protein) in coating buffer (25 mM MOPS pH 7.5, 150 mM NaCl, 10 mM DTT, 0.02% NaN_3). The plates were then incubated in blocking buffer (10 mM MOPS pH 7.5, 150 mM NaCl, 0.05% Tween 20, 0.1% Gelatin, 0.02% NaN_3) for one hour followed by one hour incubation with the different RIP DD proteins in binding buffer (100 mM Tris pH 7.5, 140 mM NaCl, 0.1 mM EDTA, 0.2% Triton X-100, 10 mM DTT). The plates were washed 4 times in 10 mM potassium phosphate buffer pH 7.4, 0.05% Tween 20. The bound His tagged proteins were then incubated for 30 minutes in 10 mM MOPS pH 7.5, 150 mM NaCl, 0.05% Tween 20, 0.02% NaN_3 anti-6× His biotinylated anti mouse antibody and strepavidin conjugated alkaline phosphatase. The plates were washed 4 times in 10 mM potassium phosphate buffer pH 7.4, 0.05% Tween. Tropix CDP-Star/Sapphire II solution was used for the luminescent detection of alkaline phosphatase.
Figure 4: FIGS. 4A and 4B. (A) Effect of the ionic strength on the binding of RIP-DD (30 μg/mL) to MBP-TRADD. (B) ELISA of RIP-DD binding to MBP-TRADD. MBP-TRADD was immobilized at 500 ng/well on 96 well plates. The reference at 100% is the binding of the wild type protein to MBP-TRADD. The values used for the determination of the binding percentage were obtained with ~30 μg/ml of soluble protein. Figure 4: Figure 5: FIG. 5. Sequence alignment of the death domains of FAS (SEQ ID NO:2) and RIP (SEQ ID NO:3). Identical residues and homologous residues are shaded. The helices identified from the NMR structure of FAS DD (Huang et al., 1996) are located above the sequence and the helices identified from the NMR structure of RIP DD are located below the sequence.
As for B1, the binding result is listed as “no binding (tested: ~30 µg/ml of soluble protein)”.
With B2, the binding result is on record as “no binding (tested: ~30 µg/ml of soluble protein)”.
Under B3 stands “no binding (tested: ~30 µg/ml of soluble protein)”.
For B4 the value was “no binding (tested: ~30 µg/ml of soluble protein)”; for B5, “no binding (tested: ~30 µg/ml of soluble protein)”.
